Data published in patent US5864028, “Degradation resistant mRNA derivatives linked to TNF-α ribozymes” (Gene Shears Pty. Limited).

Columns and labels:
[1] = molecular target: T1, GAPDH (commercial, rabbit muscle) (Oryctolagus cuniculus, UniProt P46406 P46406:1-333); experiment: ribozyme cleavage rate enhancement; none with LD; settings: tags: commercial; chain copies: 4 (stated homotetramer); hammerhead ribozyme with 5'-3' end duplex
Protocol: Autoradiogram of denaturing gels of multiple turnover reactions in the absence FIG. 32(A) or in the presence of GAPDH FIG. 32(B) as well as in the presence of LD as unspecific protein FIG. 32(C). 5 nM of the ribozyme and 50 nM of […] 15-mer substrate were incubated in a reaction mixture containing 50 mM Tris-HCl pH 7.5 and 5 mM MgCl_2 at 37° C. in the absence or presence of proteins (150 ng/μl) and then processed as described below. FIG. 32(D) Quantification of the data shown in A, B and C by Phospho-Imager. Appropriate time (min) is indicated on the top of each lane. FIG. 32(E) Control experiments. A Phospho-Imager printout is shown following separation of the products by 15% PAGE gel. No cleavage activity was seen upon addition of GAPDH in absence of Mg^++ (lane 4). The cleavage rate of the ribozyme (lane 2) is enhanced by the addition of GAPDH (Lane 3). This cleavage enhancement is shut down by phenol treatment of the GAPDH preparation prior to addition (lane 5). Arrows indicated the cleavage products.
Standard cleavage reactions were carried out at 37° C. in buffer containing 50 mM Tris-HCl, pH 7.5 and 10 mM MgCl_2. Multiple turnover cleavage reactions in the presence or absence of GAPDH were performed with 5 mM […], unless otherwise indicated. Ribozyme and substrate were heated separately at 90° C. for 1 min and cooled at 4° C. […]

[2] = molecular target: T1, GAPDH (commercial, rabbit muscle); experiment: cleavage enhancement similar to IL-2-Rz2; settings: tags: commercial; chain copies: 4 (stated homotetramer); hammerhead ribozyme with 5'-3' end duplex
[3] = molecular target: GAPDH (37 kDa ribozyme-binding protein purified from PBMN cells) (Homo sapiens, UniProt P04406 P04406:2-335); experiment: ribozyme cleavage rate enhancement; 100 ng/ul GAPDH, 2 mM MgCl2, 37 C; settings: tags: none; Mono Q purified from PBMN cytoplasmic extract; chain copies: 4 (stated homotetramer); label: 32P internal; hammerhead ribozyme
Chain of GAPDH (37 kDa ribozyme-binding protein purified from PBMN cells) (P04406 2-335, one chain of several): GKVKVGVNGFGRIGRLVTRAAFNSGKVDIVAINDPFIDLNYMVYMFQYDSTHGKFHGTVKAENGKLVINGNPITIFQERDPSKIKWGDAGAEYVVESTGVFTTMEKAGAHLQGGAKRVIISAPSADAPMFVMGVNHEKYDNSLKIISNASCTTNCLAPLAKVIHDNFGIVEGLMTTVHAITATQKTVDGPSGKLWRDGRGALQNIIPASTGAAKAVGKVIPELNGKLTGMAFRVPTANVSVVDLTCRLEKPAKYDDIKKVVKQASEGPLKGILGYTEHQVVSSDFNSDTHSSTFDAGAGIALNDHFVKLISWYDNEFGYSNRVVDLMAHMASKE
Protocol: FIG. 29(A) Ribozymes (2 nM) and the [γ^32P]-labelled 20-mer target RNA (50 nM) were incubated at 37° C. in the presence or absence of different concentrations of purified protein (Filled rectangle) or lactate dehydrogenase (open rectangle) as unspecific protein in a reaction buffer containing 50 mM Tris-HCl pH 7.5 and 1 mM MgCl_2. […] The radioactivity contained in each 5' end was quantified by Phospho-Imager. […] Appropriate time (min) is indicated on the top of each lane. The radioactivity containing in each 5' end-labelled product was quantified and expressed as percentage of radioactivity present in the substrate FIG. 29(D).
Standard cleavage reactions were carried out at 37° C. in buffer containing 50 mM Tris-HCl, pH 7.5 and 10 mM MgCl_2. Multiple turnover cleavage reactions in the presence or absence of GAPDH were performed with 5 mM […], unless otherwise indicated. Ribozyme and substrate were heated separately at 90° C. for 1 min and cooled at 4° C. After this step both RNAs were mixed in cleavage buffer containing 0.2 U RNasin and then divided into 3 samples. Following addition of GAPDH or lactate dehydrogenase (LD) as an unspecific protein to one of the samples, reactions were initiated by the addition of MgCl_2. At specified times, 10 μl aliquots were removed and the reaction was stopped by the addition of 20 mM EDTA and phenol.

T1 sequence (P46406 whole entry, one chain of several): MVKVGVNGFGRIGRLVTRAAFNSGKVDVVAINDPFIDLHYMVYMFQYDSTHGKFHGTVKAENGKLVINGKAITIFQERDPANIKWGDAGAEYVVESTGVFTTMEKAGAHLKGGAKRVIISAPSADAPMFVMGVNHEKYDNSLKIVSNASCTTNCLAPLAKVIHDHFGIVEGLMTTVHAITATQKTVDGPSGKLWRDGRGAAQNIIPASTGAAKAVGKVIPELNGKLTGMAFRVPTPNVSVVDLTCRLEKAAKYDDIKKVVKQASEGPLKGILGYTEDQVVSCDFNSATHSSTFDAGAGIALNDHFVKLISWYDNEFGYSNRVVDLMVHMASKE

GGUGCAAUGCAACUGAUGAGUCCGUGAGGACGAAACAGGAGUUGCGAAUU (ssRNA) [IL-2-Rz2]
activity [1]: 15 fold

B1: IL-2-Rz3 (ssRNA)
RNA: GACUUAGUGCAAUGCAACUGAUGAGUCCGUGAGGACGAAACAGGAGUUGCGAAUU
activity [2]: ~15 fold

B2: TNF-alpha-Rz (ssRNA)
RNA: GUAAGAUGAUCUCUGAUGAGUCCGUGAGGACGAAACUGCCUGGUACUGAAUU
activity [3]: 3.8 fold
